From patent US20240417436A1 (BRIGHT PEAK THERAPEUTICS, published 2024)
Bridges are numbered along the chain shown (N, C = ends). Primed or numbered codes have the meaning given here. [ ]: non-standard residue; d: D form. Ygp″ = O-(PEG8-amino)-tyrosine (O-(8x polyethylene glycol-amino)-tyrosine); Yn3″ = O-(PEG9-azido)-tyrosine (O-(9x polyethylene glycol-azido)-tyrosine); cleavable peptide, 4x polyethylene glycol = not defined here; Ygp = O-(8x polyethylene glycol-amino)-tyrosine; Yn3 = O-(9x polyethylene glycol-azido)-tyrosine; 4x polyethylene glycol = not defined here; PEG16′ = 16x polyethylene glycol; PEG4′ = 4x polyethylene glycol; hSer = N[C@@H](CCO)C(=O)O; Nle = CCCC[C@H](N)C(=O)O

T1: IL-2 receptor βγ complex on pan T cells (human, UniProt P14784 27-551; P31785 23-369)
T1 sequence (looked up) 1: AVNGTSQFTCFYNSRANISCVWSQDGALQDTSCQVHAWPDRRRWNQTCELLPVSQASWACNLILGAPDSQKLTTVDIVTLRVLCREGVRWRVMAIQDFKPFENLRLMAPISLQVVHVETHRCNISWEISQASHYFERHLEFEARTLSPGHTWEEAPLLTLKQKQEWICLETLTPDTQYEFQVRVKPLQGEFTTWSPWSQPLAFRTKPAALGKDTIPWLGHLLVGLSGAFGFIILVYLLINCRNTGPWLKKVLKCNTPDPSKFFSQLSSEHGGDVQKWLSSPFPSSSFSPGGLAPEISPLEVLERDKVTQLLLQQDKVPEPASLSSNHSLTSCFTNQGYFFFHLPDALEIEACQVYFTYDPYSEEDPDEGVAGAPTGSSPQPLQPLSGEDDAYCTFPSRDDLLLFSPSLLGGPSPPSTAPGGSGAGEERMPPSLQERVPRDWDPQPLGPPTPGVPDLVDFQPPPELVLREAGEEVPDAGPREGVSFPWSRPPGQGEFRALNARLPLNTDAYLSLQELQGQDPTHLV
T1 sequence (looked up) 2: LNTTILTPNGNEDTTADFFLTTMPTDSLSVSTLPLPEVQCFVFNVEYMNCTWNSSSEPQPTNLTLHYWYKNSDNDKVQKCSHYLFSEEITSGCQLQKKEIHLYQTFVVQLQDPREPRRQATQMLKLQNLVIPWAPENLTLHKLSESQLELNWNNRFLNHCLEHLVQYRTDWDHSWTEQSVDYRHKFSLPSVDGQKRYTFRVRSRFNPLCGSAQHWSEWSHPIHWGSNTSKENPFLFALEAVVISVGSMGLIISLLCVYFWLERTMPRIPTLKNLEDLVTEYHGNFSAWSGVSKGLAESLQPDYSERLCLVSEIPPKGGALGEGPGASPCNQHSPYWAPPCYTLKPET


Molecular target: T1, IL-2 receptor βγ complex on pan T cells
Experiment: cell-based or functional assay

Row | Binder | Average EC50, pSTAT5 assay in pan T cells, intact molecule [nM] | Average EC50, pSTAT5 assay in pan T cells, MMP2 cleaved molecule [nM]
1 | CMP-156 (ligand, linker N-19 via cleavable peptide, 4x polyethylene glycol; not fully specified; reading uncertain) APTSSSTKKTQLQLEHLLEDLQ[Nle]ILNGINNYKNPKLTR[Nle]L[hSer][Yn3]KF[Ygp][Nle]PKKATELKHLQCLEEELKPLEEVL[hSer]LAQSKNFHLRPRDLISNINVIVLELKGSETTF[hSer]CEYADETATIVEFLNRWITFSQSIISTLT | 86 | –
2 | CMP-137, MMP2 cleaved (ligand, not fully specified (residue 29, N-terminus); ends and bridges not checked; also: macrocycle opened by MMP2, Ala1 N-terminus and Glu29 side chain each carry PEG24-linked peptide remnant, cut site not given here) APTSSSTKKTQLQLEHLLLDLQ[Nle]ILNGIENYKNPKLTR[Nle]L[hSer][Yn3″]KF[Ygp″][Nle]PKKATELKHLQCLEEELKPLEEVL[hSer]LAQSKNFHLRPRDLISNINVIVLELKGSETTF[hSer]CEYADETATIVEFLNRWITFSQSIISTLT | – | 4.09
3 | CMP-139, MMP2 cleaved (ligand, numbers in words are those of the source; ends and bridges not checked; also: cleavable peptide cut by MMP2, macrocycle opened, cut site not given here) [PEG16′]APTSSSTKKTQLQLEHLLLDLQ[Nle]ILNGIE(PEG16′)NYKNPKLTR[Nle]L[hSer][Yn3]KF[Ygp][Nle]PKKATELKHLQCLEEELKPLEEVL[hSer]LAQSKNFHLRPRDLISNINVIVLELKGSETTF[hSer]CEYADETATIVEFLNRWITFSQSIISTLT | – | 3.61
4 | CMP-155, MMP2 cleaved (ligand, also: MMP2-cleaved cleavable peptide, macrocycle opened, cut site not given here, remnants on Glu29 and N-terminus unspecified) APTSSSTKKTQLQLEHLLLDLQ[Nle]ILNGIENYKNPKLTR[Nle]L[hSer][Yn3]KF[Ygp][Nle]PKKATELKHLQCLEEELKPLEEVL[hSer]LAQSKNFHLRPRDLISNINVIVLELKGSETTF[hSer]CEYADETATIVEFLNRWITFSQSIISTLT | – | 2.9
5 | CMP-154, MMP2 cleaved (ligand, also: macrocycle (9x PEG linker between residue 1 and Glu35 side chain) opened by MMP2 cleavage within PLGLAG, cut site not given here) PLGLAGAPTSSSTKKTQLQLEHLLLDLQ[Nle]ILNGIENYKNPKLTR[Nle]L[hSer][Yn3]KF[Ygp][Nle]PKKATELKHLQCLEEELKPLEEVL[hSer]LAQSKNFHLRPRDLISNINVIVLELKGSETTF[hSer]CEYADETATIVEFLNRWITFSQSIISTLT | – | 4.2
6 | CMP-152 (ligand, linker N-38 via 1,5‑pentanedioic acid‑9x polyethylene glycol) PLGLAGAPTSSSTKKTQLQLEHLLLDLQ[Nle]ILNGINNYKNPKLTR[Nle]L[hSer][Yn3]KF[Ygp][Nle]PKKATELKHLQCLEEELKPLEEVL[hSer]LAQSKNFHLRPRDLISNINVIVLELKGSETTF[hSer]CEYADETATIVEFLNRWITFSQSIISTLT | 16.1 | –
7 | CMP-154 (ligand, linker N-35 via 9x polyethylene glycol) PLGLAGAPTSSSTKKTQLQLEHLLLDLQ[Nle]ILNGIENYKNPKLTR[Nle]L[hSer][Yn3]KF[Ygp][Nle]PKKATELKHLQCLEEELKPLEEVL[hSer]LAQSKNFHLRPRDLISNINVIVLELKGSETTF[hSer]CEYADETATIVEFLNRWITFSQSIISTLT | 24.7 | –
8 | CMP-151, MMP2 cleaved (ligand, disulfide 58-105; also: MMP2-cleaved cleavable peptide, macrocycle opened, cut site not given here, remnants on Lys23 and Ala1 N-terminus unspecified) APTSSSTKKTQLQLEHLLLDLQKILNGINNYKNPKLTR[Nle]L[hSer][Yn3]KF[Ygp][Nle]PKKATELKHLQCLEEELKPLEEVL[hSer]LAQSKNFHLRPRDLISNINVIVLELKGSETTF[hSer]CEYADETATIVEFLNRWITFSQSIISTLT | – | 1.81
9 | CMP-152, MMP2 cleaved (ligand, also: macrocycle (glutaric acid-9x PEG linker between residue 1 and Lys38 side chain) opened by MMP2 cleavage within PLGLAG, cut site not given here) PLGLAGAPTSSSTKKTQLQLEHLLLDLQ[Nle]ILNGINNYKNPKLTR[Nle]L[hSer][Yn3]KF[Ygp][Nle]PKKATELKHLQCLEEELKPLEEVL[hSer]LAQSKNFHLRPRDLISNINVIVLELKGSETTF[hSer]CEYADETATIVEFLNRWITFSQSIISTLT | – | 2.95
10 | CMP-138, MMP2 cleaved (ligand, not fully specified; as CMP-138 but cleavable peptide cut by MMP2 (macrocycle opened); cut site not given) APTSSSTKKTQLQLEHLLLDLQXILNGIENYKNPKLTRXLXYKFYXPKKATELKHLQCLEEELKPLEEVLXLAQSKNFHLRPRDLISNINVIVLELKGSETTFXCEYADETATIVEFLNRWITFSQSIISTLT | – | 2.32

Second part, the binder after the results:

Row | Average EC50, pSTAT5 assay in pan T cells, intact molecule [nM] | Average EC50, pSTAT5 assay in pan T cells, MMP2 cleaved molecule [nM] | Binder
11 | – | 1.95 | CMP-158, MMP2 cleaved (ligand, also: MMP2-cleaved cleavable peptide, macrocycle opened, cut site not given here, remnants on Glu22 and N-terminus unspecified) APTSSSTKKTQLQLEHLLLDLE[Nle]ILNGINNYKNPKLTR[Nle]L[hSer][Yn3]KF[Ygp][Nle]PKKATELKHLQCLEEELKPLEEVL[hSer]LAQSKNFHLRPRDLISNINVIVLELKGSETTF[hSer]CEYADETATIVEFLNRWITFSQSIISTLT
12 | 54.5 | – | CMP-157 (ligand, linker N-25 via 4x polyethylene glycol; reading uncertain) PLGLAGAPTSSSTKKTQLQLEHLLEDLQ[Nle]ILNGINNYKNPKLTR[Nle]L[hSer][Yn3]KF[Ygp][Nle]PKKATELKHLQCLEEELKPLEEVL[hSer]LAQSKNFHLRPRDLISNINVIVLELKGSETTF[hSer]CEYADETATIVEFLNRWITFSQSIISTLT
13 | – | 10 | CMP-157, MMP2 cleaved (ligand, also: macrocycle (4x PEG linker between residue 1 and Glu25 side chain) opened by MMP2 cleavage within PLGLAG, cut site not given here) PLGLAGAPTSSSTKKTQLQLEHLLEDLQ[Nle]ILNGINNYKNPKLTR[Nle]L[hSer][Yn3]KF[Ygp][Nle]PKKATELKHLQCLEEELKPLEEVL[hSer]LAQSKNFHLRPRDLISNINVIVLELKGSETTF[hSer]CEYADETATIVEFLNRWITFSQSIISTLT
14 | 35.5 | – | CMP-159 (ligand, linker N-28 via PEG4′; ends not checked) PLGLAGAPTSSSTKKTQLQLEHLLLDLE[Nle]ILNGINNYKNPKLTR[Nle]L[hSer][Yn3]KF[Ygp][Nle]PKKATELKHLQCLEEELKPLEEVL[hSer]LAQSKNFHLRPRDLISNINVIVLELKGSETTF[hSer]CEYADETATIVEFLNRWITFSQSIISTLT
15 | – | 21.3 | CMP-156, MMP2 cleaved (ligand, also: MMP2-cleaved cleavable peptide, macrocycle opened, cut site not given here, remnants on Glu19 and N-terminus unspecified) APTSSSTKKTQLQLEHLLEDLQ[Nle]ILNGINNYKNPKLTR[Nle]L[hSer][Yn3]KF[Ygp][Nle]PKKATELKHLQCLEEELKPLEEVL[hSer]LAQSKNFHLRPRDLISNINVIVLELKGSETTF[hSer]CEYADETATIVEFLNRWITFSQSIISTLT
16 | 36.6 | – | CMP-158 (ligand, linker N-22 via cleavable peptide, 4x polyethylene glycol; not fully specified; reading uncertain) APTSSSTKKTQLQLEHLLLDLE[Nle]ILNGINNYKNPKLTR[Nle]L[hSer][Yn3]KF[Ygp][Nle]PKKATELKHLQCLEEELKPLEEVL[hSer]LAQSKNFHLRPRDLISNINVIVLELKGSETTF[hSer]CEYADETATIVEFLNRWITFSQSIISTLT
